Laboratory results taken from paper PMC7496117, “A zinc finger protein BBX19 interacts with ABF3 to affect drought tolerance negatively in chrysanthemum”.

Molecular target: T1, GST-CmABF3 (Chrysanthemum morifolium, UniProt A0A7T8G3B9 1-415)
T1 sequence: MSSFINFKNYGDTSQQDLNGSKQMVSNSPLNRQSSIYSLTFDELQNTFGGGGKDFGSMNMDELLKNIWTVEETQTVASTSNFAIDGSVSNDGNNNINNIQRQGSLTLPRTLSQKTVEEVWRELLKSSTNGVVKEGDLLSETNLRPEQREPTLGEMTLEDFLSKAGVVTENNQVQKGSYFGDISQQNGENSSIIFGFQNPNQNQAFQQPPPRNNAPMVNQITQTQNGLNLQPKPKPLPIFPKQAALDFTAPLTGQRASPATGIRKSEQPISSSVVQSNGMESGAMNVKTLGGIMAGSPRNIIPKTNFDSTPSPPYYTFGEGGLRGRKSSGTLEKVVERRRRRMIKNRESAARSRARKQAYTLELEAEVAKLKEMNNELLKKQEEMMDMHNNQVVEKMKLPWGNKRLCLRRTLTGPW
Test: EMSA; 3 ug protein; cold-probe competition 100-5000x, outcome only in gel; LightShift Chemiluminescent EMSA kit, 20 ul reaction, 3 ug protein; biotin probe 50 nM or 2 nM (Methods); buffer, salt, pH and temperature not stated
Conditions: protein: recombinant; tags: GST (N-terminal, pGEX); chain copies: 2; blunt

B1: proRAB18-probe (CmRAB18 promoter, two ABRE motifs) (dsDNA)
DNA 1: GAAATTAGACACGTACTTTTCAGTGATAACATAAACATACTTACGTGTTC
DNA 2: GAACACGTAAGTATGTTTATGTTATCACTGAAAAGTACGTGTCTAATTTC
binding result: binds
